T1: BARD1-V5 WT (BRCA1-Associated RING Domain protein 1) (UniProt Q99728 1-777)
T1 construct: BARD1 (BRCA1-Associated RING Domain protein 1), wild type; also called pcDNA6.2-BARD1-V5; source: HEK293FT, transiently co-transfected, in lysate
T1 sequence (looked up): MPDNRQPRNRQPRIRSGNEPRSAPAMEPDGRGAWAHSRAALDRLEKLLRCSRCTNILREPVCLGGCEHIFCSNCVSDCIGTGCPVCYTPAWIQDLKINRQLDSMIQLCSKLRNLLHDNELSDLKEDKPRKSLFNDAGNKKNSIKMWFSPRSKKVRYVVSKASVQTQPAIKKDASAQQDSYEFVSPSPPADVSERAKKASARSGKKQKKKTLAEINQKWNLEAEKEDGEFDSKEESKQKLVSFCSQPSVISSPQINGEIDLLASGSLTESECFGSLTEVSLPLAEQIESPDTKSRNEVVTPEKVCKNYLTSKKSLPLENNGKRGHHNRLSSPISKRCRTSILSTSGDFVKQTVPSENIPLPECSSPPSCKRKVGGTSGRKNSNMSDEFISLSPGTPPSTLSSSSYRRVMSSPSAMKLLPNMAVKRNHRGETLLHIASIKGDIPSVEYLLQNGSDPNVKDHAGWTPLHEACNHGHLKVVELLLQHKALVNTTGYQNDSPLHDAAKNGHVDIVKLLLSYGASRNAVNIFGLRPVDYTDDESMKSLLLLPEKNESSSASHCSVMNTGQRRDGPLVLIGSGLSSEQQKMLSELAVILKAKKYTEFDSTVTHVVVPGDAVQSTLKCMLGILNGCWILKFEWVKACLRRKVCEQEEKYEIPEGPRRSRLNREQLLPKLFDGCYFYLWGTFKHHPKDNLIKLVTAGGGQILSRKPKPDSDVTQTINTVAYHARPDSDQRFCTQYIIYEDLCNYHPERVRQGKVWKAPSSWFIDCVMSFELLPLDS

B1: mCherry-tagged wild type (WT) full-length human BRCA1 protein (natural protein, UniProt P38398 1-1863, looked up)
chain: MDLSALRVEEVQNVINAMQKILECPICLELIKEPVSTKCDHIFCKFCMLKLLNQKKGPSQCPLCKNDITKRSLQESTRFSQLVEELLKIICAFQLDTGLEYANSYNFAKKENNSPEHLKDEVSIIQSMGYRNRAKRLLQSEPENPSLQETSLSVQLSNLGTVRTLRTKQRIQPQKTSVYIELGSDSSEDTVNKATYCSVGDQELLQITPQGTRDEISLDSAKKAACEFSETDVTNTEHHQPSNNDLNTTEKRAAERHPEKYQGSSVSNLHVEPCGTNTHASSLQHENSSLLLTKDRMNVEKAEFCNKSKQPGLARSQHNRWAGSKETCNDRRTPSTEKKVDLNADPLCERKEWNKQKLPCSENPRDTEDVPWITLNSSIQKVNEWFSRSDELLGSDDSHDGESESNAKVADVLDVLNEVDEYSGSSEKIDLLASDPHEALICKSERVHSKSVESNIEDKIFGKTYRKKASLPNLSHVTENLIIGAFVTEPQIIQERPLTNKLKRKRRPTSGLHPEDFIKKADLAVQKTPEMINQGTNQTEQNGQVMNITNSGHENKTKGDSIQNEKNPNPIESLEKESAFKTKAEPISSSISNMELELNIHNSKAPKKNRLRRKSSTRHIHALELVVSRNLSPPNCTELQIDSCSSSEEIKKKKYNQMPVRHSRNLQLMEGKEPATGAKKSNKPNEQTSKRHDSDTFPELKLTNAPGSFTKCSNTSELKEFVNPSLPREEKEEKLETVKVSNNAEDPKDLMLSGERVLQTERSVESSSISLVPGTDYGTQESISLLEVSTLGKAKTEPNKCVSQCAAFENPKGLIHGCSKDNRNDTEGFKYPLGHEVNHSRETSIEMEESELDAQYLQNTFKVSKRQSFAPFSNPGNAEEECATFSAHSGSLKKQSPKVTFECEQKEENQGKNESNIKPVQTVNITAGFPVVGQKDKPVDNAKCSIKGGSRFCLSSQFRGNETGLITPNKHGLLQNPYRIPPLFPIKSFVKTKCKKNLLEENFEEHSMSPEREMGNENIPSTVSTISRNNIRENVFKEASSSNINEVGSSTNEVGSSINEIGSSDENIQAELGRNRGPKLNAMLRLGVLQPEVYKQSLPGSNCKHPEIKKQEYEEVVQTVNTDFSPYLISDNLEQPMGSSHASQVCSETPDDLLDDGEIKEDTSFAENDIKESSAVFSKSVQKGELSRSPSPFTHTHLAQGYRRGAKKLESSEENLSSEDEELPCFQHLLFGKVNNIPSQSTRHSTVATECLSKNTEENLLSLKNSLNDCSNQVILAKASQEHHLSEETKCSASLFSSQCSELEDLTANTNTQDPFLIGSSKQMRHQSESQGVGLSDKELVSDDEERGTGLEENNQEEQSMDSNLGEAASGCESETSVSEDCSGLSSQSDILTTQQRDTMQHNLIKLQQEMAELEAVLEQHGSQPSNSYPSIISDSSALEDLRNPEQSTSEKAVLTSQKSSEYPISQNPEGLSADKFEVSADSSTSKNKEPGVERSSPSKCPSLDDRWYMHSCSGSLQNRNYPSQEELIKVVDVEEQQLEESGPHDLTETSYLPRQDLEGTPYLESGISLFSDDPESDPSEDRAPESARVGNIPSSTSALKVPQLKVAESAQSPAAAHTTDTAGYNAMEESVSREKPELTASTERVNKRMSMVVSGLTPEEFMLVYKFARKHHITLTNLITEETTHVVMKTDAEFVCERTLKYFLGIAGGKWVVSYFWVTQSIKERKMLNEHDFEVRGDVVNGRNHQGPKRARESQDRKIFRGLEICCYGPFTNMPTDQLEWMVQLCGASVVKELSSFTLGTGVHPIVVVQPDAWTEDNGFHAIGQMCEAPVVTREWVLDSVALYQCQELDTYLIPQIPHSHY
notes: BRCA1, human, full-length, wild type; also called BRCA1 WT; mCherry-BRCA1; source: HEK293FT, transiently co-transfected, in lysate
B2: BRCA1 p.Lys45Gln (full-length, mCherry-tagged; benign control variant, RING domain) (natural protein, human, UniProt P38398 1-1863, looked up)
chain: MDLSALRVEEVQNVINAMQKILECPICLELIKEPVSTKCDHIFCQFCMLKLLNQKKGPSQCPLCKNDITKRSLQESTRFSQLVEELLKIICAFQLDTGLEYANSYNFAKKENNSPEHLKDEVSIIQSMGYRNRAKRLLQSEPENPSLQETSLSVQLSNLGTVRTLRTKQRIQPQKTSVYIELGSDSSEDTVNKATYCSVGDQELLQITPQGTRDEISLDSAKKAACEFSETDVTNTEHHQPSNNDLNTTEKRAAERHPEKYQGSSVSNLHVEPCGTNTHASSLQHENSSLLLTKDRMNVEKAEFCNKSKQPGLARSQHNRWAGSKETCNDRRTPSTEKKVDLNADPLCERKEWNKQKLPCSENPRDTEDVPWITLNSSIQKVNEWFSRSDELLGSDDSHDGESESNAKVADVLDVLNEVDEYSGSSEKIDLLASDPHEALICKSERVHSKSVESNIEDKIFGKTYRKKASLPNLSHVTENLIIGAFVTEPQIIQERPLTNKLKRKRRPTSGLHPEDFIKKADLAVQKTPEMINQGTNQTEQNGQVMNITNSGHENKTKGDSIQNEKNPNPIESLEKESAFKTKAEPISSSISNMELELNIHNSKAPKKNRLRRKSSTRHIHALELVVSRNLSPPNCTELQIDSCSSSEEIKKKKYNQMPVRHSRNLQLMEGKEPATGAKKSNKPNEQTSKRHDSDTFPELKLTNAPGSFTKCSNTSELKEFVNPSLPREEKEEKLETVKVSNNAEDPKDLMLSGERVLQTERSVESSSISLVPGTDYGTQESISLLEVSTLGKAKTEPNKCVSQCAAFENPKGLIHGCSKDNRNDTEGFKYPLGHEVNHSRETSIEMEESELDAQYLQNTFKVSKRQSFAPFSNPGNAEEECATFSAHSGSLKKQSPKVTFECEQKEENQGKNESNIKPVQTVNITAGFPVVGQKDKPVDNAKCSIKGGSRFCLSSQFRGNETGLITPNKHGLLQNPYRIPPLFPIKSFVKTKCKKNLLEENFEEHSMSPEREMGNENIPSTVSTISRNNIRENVFKEASSSNINEVGSSTNEVGSSINEIGSSDENIQAELGRNRGPKLNAMLRLGVLQPEVYKQSLPGSNCKHPEIKKQEYEEVVQTVNTDFSPYLISDNLEQPMGSSHASQVCSETPDDLLDDGEIKEDTSFAENDIKESSAVFSKSVQKGELSRSPSPFTHTHLAQGYRRGAKKLESSEENLSSEDEELPCFQHLLFGKVNNIPSQSTRHSTVATECLSKNTEENLLSLKNSLNDCSNQVILAKASQEHHLSEETKCSASLFSSQCSELEDLTANTNTQDPFLIGSSKQMRHQSESQGVGLSDKELVSDDEERGTGLEENNQEEQSMDSNLGEAASGCESETSVSEDCSGLSSQSDILTTQQRDTMQHNLIKLQQEMAELEAVLEQHGSQPSNSYPSIISDSSALEDLRNPEQSTSEKAVLTSQKSSEYPISQNPEGLSADKFEVSADSSTSKNKEPGVERSSPSKCPSLDDRWYMHSCSGSLQNRNYPSQEELIKVVDVEEQQLEESGPHDLTETSYLPRQDLEGTPYLESGISLFSDDPESDPSEDRAPESARVGNIPSSTSALKVPQLKVAESAQSPAAAHTTDTAGYNAMEESVSREKPELTASTERVNKRMSMVVSGLTPEEFMLVYKFARKHHITLTNLITEETTHVVMKTDAEFVCERTLKYFLGIAGGKWVVSYFWVTQSIKERKMLNEHDFEVRGDVVNGRNHQGPKRARESQDRKIFRGLEICCYGPFTNMPTDQLEWMVQLCGASVVKELSSFTLGTGVHPIVVVQPDAWTEDNGFHAIGQMCEAPVVTREWVLDSVALYQCQELDTYLIPQIPHSHY
notes: BRCA1, human, full-length, benign control missense variant in the RING domain, introduced in the WT plasmid; Made by site-directed mutagenesis of the plasmid of m1; also called c.133A > C; source: HEK293FT, transiently co-transfected, in lysate
B3: BRCA1 p.Cys39Tyr (full-length, mCherry-tagged; pathogenic control variant, RING domain) (natural protein, human, UniProt P38398 1-1863, looked up)
chain: MDLSALRVEEVQNVINAMQKILECPICLELIKEPVSTKYDHIFCKFCMLKLLNQKKGPSQCPLCKNDITKRSLQESTRFSQLVEELLKIICAFQLDTGLEYANSYNFAKKENNSPEHLKDEVSIIQSMGYRNRAKRLLQSEPENPSLQETSLSVQLSNLGTVRTLRTKQRIQPQKTSVYIELGSDSSEDTVNKATYCSVGDQELLQITPQGTRDEISLDSAKKAACEFSETDVTNTEHHQPSNNDLNTTEKRAAERHPEKYQGSSVSNLHVEPCGTNTHASSLQHENSSLLLTKDRMNVEKAEFCNKSKQPGLARSQHNRWAGSKETCNDRRTPSTEKKVDLNADPLCERKEWNKQKLPCSENPRDTEDVPWITLNSSIQKVNEWFSRSDELLGSDDSHDGESESNAKVADVLDVLNEVDEYSGSSEKIDLLASDPHEALICKSERVHSKSVESNIEDKIFGKTYRKKASLPNLSHVTENLIIGAFVTEPQIIQERPLTNKLKRKRRPTSGLHPEDFIKKADLAVQKTPEMINQGTNQTEQNGQVMNITNSGHENKTKGDSIQNEKNPNPIESLEKESAFKTKAEPISSSISNMELELNIHNSKAPKKNRLRRKSSTRHIHALELVVSRNLSPPNCTELQIDSCSSSEEIKKKKYNQMPVRHSRNLQLMEGKEPATGAKKSNKPNEQTSKRHDSDTFPELKLTNAPGSFTKCSNTSELKEFVNPSLPREEKEEKLETVKVSNNAEDPKDLMLSGERVLQTERSVESSSISLVPGTDYGTQESISLLEVSTLGKAKTEPNKCVSQCAAFENPKGLIHGCSKDNRNDTEGFKYPLGHEVNHSRETSIEMEESELDAQYLQNTFKVSKRQSFAPFSNPGNAEEECATFSAHSGSLKKQSPKVTFECEQKEENQGKNESNIKPVQTVNITAGFPVVGQKDKPVDNAKCSIKGGSRFCLSSQFRGNETGLITPNKHGLLQNPYRIPPLFPIKSFVKTKCKKNLLEENFEEHSMSPEREMGNENIPSTVSTISRNNIRENVFKEASSSNINEVGSSTNEVGSSINEIGSSDENIQAELGRNRGPKLNAMLRLGVLQPEVYKQSLPGSNCKHPEIKKQEYEEVVQTVNTDFSPYLISDNLEQPMGSSHASQVCSETPDDLLDDGEIKEDTSFAENDIKESSAVFSKSVQKGELSRSPSPFTHTHLAQGYRRGAKKLESSEENLSSEDEELPCFQHLLFGKVNNIPSQSTRHSTVATECLSKNTEENLLSLKNSLNDCSNQVILAKASQEHHLSEETKCSASLFSSQCSELEDLTANTNTQDPFLIGSSKQMRHQSESQGVGLSDKELVSDDEERGTGLEENNQEEQSMDSNLGEAASGCESETSVSEDCSGLSSQSDILTTQQRDTMQHNLIKLQQEMAELEAVLEQHGSQPSNSYPSIISDSSALEDLRNPEQSTSEKAVLTSQKSSEYPISQNPEGLSADKFEVSADSSTSKNKEPGVERSSPSKCPSLDDRWYMHSCSGSLQNRNYPSQEELIKVVDVEEQQLEESGPHDLTETSYLPRQDLEGTPYLESGISLFSDDPESDPSEDRAPESARVGNIPSSTSALKVPQLKVAESAQSPAAAHTTDTAGYNAMEESVSREKPELTASTERVNKRMSMVVSGLTPEEFMLVYKFARKHHITLTNLITEETTHVVMKTDAEFVCERTLKYFLGIAGGKWVVSYFWVTQSIKERKMLNEHDFEVRGDVVNGRNHQGPKRARESQDRKIFRGLEICCYGPFTNMPTDQLEWMVQLCGASVVKELSSFTLGTGVHPIVVVQPDAWTEDNGFHAIGQMCEAPVVTREWVLDSVALYQCQELDTYLIPQIPHSHY
notes: BRCA1, human, full-length, pathogenic control missense variant in the RING domain, introduced in the WT plasmid; Made by site-directed mutagenesis of the plasmid of m1; all other places and c.116G > A say p.Cys39Tyr; also called c.116G > A; source: HEK293FT, transiently co-transfected, in lysate

biological target: T1, BARD1-V5 WT (BRCA1-Associated RING …); test: co-IP; HEK293FT co-transfected with BRCA1 WT or variant and BARD1-V5; 2 mg lysate protein incubated 90 min at 4 °C with V5 antibody coupled to Dynabeads Protein G; non-denaturing elution; BRCA1 in the IP detected by anti-BRCA1 blot, normalised to the anti-V5 signal, % of WT; conditions: partners not purified

Going from B1 to B2, the “Co-IP BARD1 (% of WT)” value falls from 100 % of WT to 76 % of WT.

In the case of B3, the “Co-IP BARD1 (% of WT)” value is reported as 8 % of WT.
